From patent US8691225B2, “Antibodies against the ectodomain of ErbB3 and uses thereof” (Merrimack Pharmaceuticals, Inc., priority 2007, dated 2014) come the findings set out here.

The target in test [1] is T1, ErbB3 receptor on the surface of MALME-3M cells (Homo sapiens, UniProt P21860).
T1 construct: ErbB3 expressed on MALME-3M melanoma cells; host or cells: MALME-3M melanoma cells
Nature of the test: cell surface fluorescence quenching assay (timecourse of ErbB3 downregulation). The format is cell-based. On the procedure: In order to determine whether this downregulation of ErbB3 is due to internalization of the ErbB3 receptor on the surface of MALME-3M cells, a cell surface fluorescence quenching assay is preformed. MALME-3M cells are plated overnight on 6-well plates (0.2×10^6 per well) in RPMI+10% FBS. The following day, old medium is removed and cells are preincubated for 60 minutes on ice in RPMI+2% FBS containing 100 nM of Ab#6 conjugated to the fluorescent dye Alexa 488. Cells are then returned to a 37° C. incubator and incubated for 0.5 h, 2 h or 24 h. At the end of each timepoint, cells are trypsinized, washed with PBS+2% BSA+0.1% sodium azide (FACS stain buffer) and stored on ice until all samples are ready. For a Oh timepoint, cells are immediately trypsinized after the 60 minute preincubation and stored on ice. […] One set of tubes is incubated with 25 ug/ml anti-Alexa 488 antibody for 60 minutes on ice to quench any fluorescence source (i.e., Alexa 488-conjugated Ab#6) on the cell surface. […] For each sample 10,000 events are collected and analyzed with a FACSCALIBUR flow cytometer. This protocol gives an indication of what proportion of AB #6 (as measured by fluorescence) remains on the cell surface (indicated by the differential between the fluorescence of the quenched and unquenched cells at each timepoint) and how much is internalized (indicated by the level of fluorescence of quenched cells).

Test [2] deals with T2, epiregulin binding to AdrR cells (Homo sapiens, UniProt P21860).
T2 construct: host or cells: AdrR (NCI/AdrR) ovarian cancer cells
The test can be described thus: biotinylated epiregulin binding to AdrR cells by FACS. It is filed as cell-based. The following applies: 12.5 μM antibodies, 1 μM Epi. A general note: A flow cytometer gives signals particle by particle.
Description: After 30 minutes, 50 μl of 2 μM biotinylated Epi is added to the cells and incubated for another 30 minutes on ice. This yields a final concentration of 12.5 μM antibodies and 1 μM Epi. Cells are then washed twice with 500 μl BD stain buffer and incubated with 100 μl of a 1:200 dilution of streptavidin-PE (PE=phycoerythrin, a fluorescent protein) (Invitrogen) in BD stain buffer for 45 minutes. Finally, cells are washed twice, resuspended in 300 μl of BD stain buffer and analyzed in a FACSCALIBUR flow cytometer. As a positive control, 1×10^5 AdrR cells are incubated with 1 μM Epi for 30 minutes on ice, washed twice and incubated with a 1:200 dilution of streptavidin-PE for 45 minutes. To assess background staining from the streptavidin-PE conjugate, cells are incubated with 100 μl of a 1:200 dilution of streptavidin-PE only for 45 minutes.

In test [3] the test system is HB-EGF binding to AdrR cells. Nature of the test: biotinylated HB-EGF binding to AdrR cells by FACS. It is filed as cell-based, human. The following applies: 12.5 μM antibodies, 200 nM HB-EGF. On the procedure: After 30 minutes, 50 μl of 400 nM biotinylated HB-EGF is added to the cells and incubated for another 30 minutes on ice. This yields a final concentration of 12.5 μM antibodies and 200 nM HB-EGF. Cells are then washed twice with 500 μl BD stain buffer and incubated with 100 μl of a 1:200 dilution of streptavidin-PE (PE=phycoerythrin) (Invitrogen) in BD stain buffer for 45 minutes. Finally, cells are washed twice, resuspended in 300 μl of BD stain buffer and analyzed in a FACSCALIBUR flow cytometer. As a positive control, 1×10^5 AdrR cells are incubated with 200 nM HB-EGF for 30 minutes on ice, washed twice and incubated with a 1:200 dilution of streptavidin-PE for 45 minutes. To assess background staining from the streptavidin-PE conjugate, cells are incubated with 100 μl of a 1:200 dilution of streptavidin-PE only for 45 minutes.

Test [4] concerns the target T3, AdrR cells expressing ErbB3 receptor (Homo sapiens, UniProt P21860).
T3 construct: host or cells: AdrR (NCI/AdrR) ovarian cancer cells
The test can be described thus: HRG and BTC binding to AdrR cells by FACS. The format is cell-based.

B1: Ab #6: human anti-ErbB3 antibody from Fab-phage library, CDRs SEQ ID NOs:7-12; used as IgG1 and IgG2 isotypes; in phase I trials as MM-121 (antibody, V domains shown)
VH: EVQLLESGGGLVQPGGSLRLSCAASGFTFSHYVMAWVRQAPGKGLEWVSSISSSGGWTLYADSVKGRFTISRDNSKNTLYLQMNSLRAEDTAVYYCTRGLKMATIFDYWGQGTLVTVSS
VL: QSALTQPASVSGSPGQSITISCTGTSSDVGSYNVVSWYQQHPGKAPKLIIYEVSQRPSGVSNRFSGSKSGNTASLTISGLQTEDEADYYCCSYAGSSIFVIFGGGTKVTVL
Regarding B1, the “downregulation of cell surface ErbB3 receptors” value in test [1] (after about 30 minutes) is reported as “about 50%”. For the same molecule, the “downregulation of cell surface ErbB3 receptors” value in test [1] (at about 24 hours) is reported as “about 93%”. Moreover, the “inhibition of epiregulin binding to AdrR cells” value in test [2] was “inhibited”. Moreover, the “inhibition of HB-EGF binding to AdrR cells” value in test [3] is listed as “does not inhibit this binding”. In test [4], the “competition with BTC for binding to AdrR cells” value is reported as “competes with HRG but not BTC” and the “competition with HRG for binding to AdrR cells” value was “competes with HRG”.
